This note sets out measurements from paper PMC9630439.

Assay [1] addresses GPa3b17 TCR complex expressed without CD3-ζ (TCR-αβ/CD3-δγε2) (human) (UniProt P07766). As to the kind of experiment: flow cytometry on cells; CHO cells transduced with lentivirus combinations, stained with Alexa Fluor 647-labelled gp100/HLA-A2, 30 min at 4 °C in the dark.
The target of assay [2] is fully assembled GPa3b17 TCR (TCRαβ/CD3δγε2ζ2 complex, CD3 cytosolic domains truncated, CD3-δ tagged with GFP2) (human) (UniProt P07766). Described as above.

Where “and” joins values, the source holds several entries; their conditions need not be identical. Equal entries are not always repeated.

As for “gp100/HLA-A2 (soluble gp100 peptide / HLA-A*02:01 / β2-microglobulin monomer with C-terminal HPC-4 epitope) (from UniProt P61769 22-119) (peptide-MHC)”, the median fluorescence intensity following pMHC staining in assay [1] is 116000; in assay [2], 135000 and 144000.
